# Test system: Escherichia coli TOP10
# Test: shrunken log2 fold change of peptide-encoding DNA abundance (4.5 h post-induction vs induction); higher = less antimicrobial activity (less host growth inhibition)
# Conditions: time post-induction: 4.5 h; library: site-saturation at positions 5, 18, 19, 20
# 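Note: peptides expressed intracellularly from a pBAD plasmid library in pooled LB shake-flask culture, induced with 0.3% L-arabinose, DNA abundance read by NGS, three biological replicates, DESeq2 with apeglm shrinkage.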
row,Sequence,shrunken log2 fold change
1,RRIRDRPPRLPRPRPRPYLTPRP,-0.0558
2,RRIRSRPPRLPRPRPRPLRRPRP,0.404
3,RRIRGRPPRLPRPRPRPIFDPRP,0.378
4,RRIRARPPRLPRPRPRPPGYPRP,0.365
5,RRIRPRPPRLPRPRPRPMIWPRP,-0.136
6,RRIRYRPPRLPRPRPRPLRKPRP,-0.258
7,RRIRQRPPRLPRPRPRPPLRPRP,0.49
8,RRIRVRPPRLPRPRPRPVDWPRP,0.403
9,RRIRGRPPRLPRPRPRPFYEPRP,0.0153
10,RRIRARPPRLPRPRPRPGRAPRP,0.731
11,RRIRIRPPRLPRPRPRPIQEPRP,0.0527
12,RRIRFRPPRLPRPRPRPIFWPRP,0.192
13,RRIRVRPPRLPRPRPRPHKNPRP,-0.301
14,RRIRVRPPRLPRPRPRPTSLPRP,-0.262
15,RRIRCRPPRLPRPRPRPLKDPRP,-0.0917
16,RRIRYRPPRLPRPRPRPKGGPRP,0.0198
17,RRIRNRPPRLPRPRPRPECCPRP,0.517
18,RRIRRRPPRLPRPRPRPTSRPRP,0.312
19,RRIRIRPPRLPRPRPRPQFCPRP,-0.32
20,RRIRPRPPRLPRPRPRPLNCPRP,-0.227
21,RRIRKRPPRLPRPRPRPEQSPRP,0.94
22,RRIRYRPPRLPRPRPRPNYWPRP,-0.698
23,RRIRTRPPRLPRPRPRPYFSPRP,-0.156
24,RRIRDRPPRLPRPRPRPWVTPRP,-0.0629
25,RRIRERPPRLPRPRPRPPWIPRP,-0.042

row,Sequence,shrunken log2 fold change
1,RRIRPRPPRLPRPRPRPMMVPRP,-0.0739
2,RRIRYRPPRLPRPRPRPARSPRP,0.134
3,RRIRERPPRLPRPRPRPLETPRP,-0.0311
4,RRIRCRPPRLPRPRPRPIEEPRP,0.008
5,RRIRSRPPRLPRPRPRPMCDPRP,-0.147
6,RRIRVRPPRLPRPRPRPQTCPRP,-0.193
7,RRIRSRPPRLPRPRPRPTDEPRP,-0.148
8,RRIRLRPPRLPRPRPRPYWQPRP,0.0322
9,RRIRYRPPRLPRPRPRPKDKPRP,-0.536
10,RRIRERPPRLPRPRPRPNYVPRP,-0.931
11,RRIRHRPPRLPRPRPRPYHDPRP,-0.135
12,RRIRWRPPRLPRPRPRPCSNPRP,-0.0711
13,RRIRLRPPRLPRPRPRPEMSPRP,-0.0316
14,RRIRRRPPRLPRPRPRPPIRPRP,2.1
15,RRIRVRPPRLPRPRPRPPPAPRP,1.07
16,RRIRMRPPRLPRPRPRPYLNPRP,0.00358
17,RRIRERPPRLPRPRPRPLREPRP,0.385
18,RRIRTRPPRLPRPRPRPRTQPRP,0.172
19,RRIRSRPPRLPRPRPRPTWEPRP,0.187
20,RRIRGRPPRLPRPRPRPKPCPRP,0.422
21,RRIRHRPPRLPRPRPRPADCPRP,-0.395
22,RRIRERPPRLPRPRPRPYVSPRP,-0.672
23,RRIRHRPPRLPRPRPRPDYLPRP,-0.998
24,RRIRHRPPRLPRPRPRPHDIPRP,0.0564
25,RRIRDRPPRLPRPRPRPKWPPRP,0.466

row,Sequence,shrunken log2 fold change
1,RRIRRRPPRLPRPRPRPFHRPRP,0.0574
2,RRIRHRPPRLPRPRPRPHQEPRP,-0.0212
3,RRIRHRPPRLPRPRPRPWEEPRP,-0.0121
4,RRIRYRPPRLPRPRPRPNTYPRP,-0.988
5,RRIRVRPPRLPRPRPRPKWQPRP,-0.0246
6,RRIRQRPPRLPRPRPRPTWIPRP,-0.057
7,RRIRRRPPRLPRPRPRPCMEPRP,-0.174
8,RRIRSRPPRLPRPRPRPMLVPRP,-0.0894
9,RRIRDRPPRLPRPRPRPNYQPRP,-0.187
10,RRIRCRPPRLPRPRPRPHDQPRP,0.0433
11,RRIRLRPPRLPRPRPRPIKRPRP,-0.466
12,RRIRMRPPRLPRPRPRPNSLPRP,-0.0986
13,RRIRSRPPRLPRPRPRPQTKPRP,-0.0915
14,RRIRERPPRLPRPRPRPQGIPRP,-0.044
15,RRIRGRPPRLPRPRPRPNGRPRP,0.419
16,RRIRRRPPRLPRPRPRPNIDPRP,-0.0882
17,RRIRDRPPRLPRPRPRPLLHPRP,0.114
18,RRIRPRPPRLPRPRPRPEIVPRP,0.0303
19,RRIRGRPPRLPRPRPRPCGWPRP,1.34
20,RRIRTRPPRLPRPRPRPMIDPRP,-0.246
21,RRIRIRPPRLPRPRPRPSMGPRP,-0.222
22,RRIRKRPPRLPRPRPRPTERPRP,0.306
23,RRIRKRPPRLPRPRPRPLIWPRP,0.761
24,RRIRLRPPRLPRPRPRPVCHPRP,-0.274
25,RRIRCRPPRLPRPRPRPHIWPRP,-0.6

row,Sequence,shrunken log2 fold change
1,RRIRCRPPRLPRPRPRPCTHPRP,-0.48
2,RRIRIRPPRLPRPRPRPHQCPRP,-0.331
3,RRIRPRPPRLPRPRPRPSFDPRP,-0.248
4,RRIRSRPPRLPRPRPRPSWGPRP,-0.114
5,RRIRLRPPRLPRPRPRPQQVPRP,0.107
6,RRIRERPPRLPRPRPRPFRFPRP,-0.185
7,RRIRQRPPRLPRPRPRPNSYPRP,-0.225
8,RRIRGRPPRLPRPRPRPAGPPRP,0.644
9,RRIRLRPPRLPRPRPRPQSLPRP,-0.0995
10,RRIRWRPPRLPRPRPRPMVFPRP,0.274
11,RRIRMRPPRLPRPRPRPQHMPRP,-0.355
12,RRIRGRPPRLPRPRPRPQIWPRP,0.293
13,RRIRYRPPRLPRPRPRPENGPRP,0.0143
14,RRIRPRPPRLPRPRPRPNKFPRP,-0.173
15,RRIRARPPRLPRPRPRPYLWPRP,0.134
16,RRIRMRPPRLPRPRPRPQCCPRP,0.00357
17,RRIRVRPPRLPRPRPRPESVPRP,-0.204
18,RRIRRRPPRLPRPRPRPQMVPRP,-0.0843
19,RRIRFRPPRLPRPRPRPEDMPRP,0.000714
20,RRIRCRPPRLPRPRPRPEAVPRP,0.383
21,RRIRCRPPRLPRPRPRPFWPPRP,0.161
22,RRIRPRPPRLPRPRPRPRTYPRP,-0.196
23,RRIRFRPPRLPRPRPRPDNNPRP,-0.4
24,RRIRYRPPRLPRPRPRPYPMPRP,-0.744
25,RRIRFRPPRLPRPRPRPTKQPRP,0.0621

row,Sequence,shrunken log2 fold change
1,RRIRQRPPRLPRPRPRPYHLPRP,-0.00174
2,RRIRYRPPRLPRPRPRPHLGPRP,0.0406
3,RRIRARPPRLPRPRPRPRWQPRP,0.361
4,RRIRPRPPRLPRPRPRPKEKPRP,0.264
5,RRIRKRPPRLPRPRPRPFSDPRP,0.0546
6,RRIRLRPPRLPRPRPRPKDHPRP,-0.123
7,RRIRMRPPRLPRPRPRPMCMPRP,-0.179
8,RRIRCRPPRLPRPRPRPISIPRP,-0.443
9,RRIRIRPPRLPRPRPRPHNSPRP,-0.132
10,RRIRIRPPRLPRPRPRPGPFPRP,-0.239
11,RRIRERPPRLPRPRPRPEGVPRP,0.172
12,RRIRCRPPRLPRPRPRPRLDPRP,0.154
13,RRIRDRPPRLPRPRPRPSWSPRP,-0.369
14,RRIRLRPPRLPRPRPRPVTGPRP,-0.121
15,RRIRFRPPRLPRPRPRPKSDPRP,0.0639
16,RRIRFRPPRLPRPRPRPRETPRP,0.0137
17,RRIRPRPPRLPRPRPRPTIFPRP,0.0842
18,RRIRFRPPRLPRPRPRPEMVPRP,-0.143
19,RRIRQRPPRLPRPRPRPLNHPRP,0.133
20,RRIRFRPPRLPRPRPRPFSHPRP,-1.36
21,RRIRHRPPRLPRPRPRPFLKPRP,-0.0136
22,RRIRCRPPRLPRPRPRPRRMPRP,0.00514
23,RRIRMRPPRLPRPRPRPKWRPRP,0.797
24,RRIRSRPPRLPRPRPRPWHGPRP,-0.00232
25,RRIRHRPPRLPRPRPRPRRWPRP,-0.00291
